Test results reported in US7604932B2, “Assay for tissue factor in a sample” (Haematologic Technologies, Inc., priority 2002, dated 2009).
Blank lines part the entries; values can stand above or below the substance they belong to.

What was measured:
[1] = target: fVIIa (Homo sapiens, UniProt P08709); experiment: Fluorogenic TF assay of relipidated TF with 2 nM fVIIa and D-FPR-(n-butyl)ANSN, compared to the FIG. 2 calibration curve; format: biochemical; conditions: 250 pM TF to 500 nM PCPS (75% PC, 25% PS); 2 nM fVIIa; 2 mM CaCl2, pH 7.4; 50 μM D-FPR-(n-butyl)ANSN
Sequence of fVIIa (P08709 61-212 limits assumed): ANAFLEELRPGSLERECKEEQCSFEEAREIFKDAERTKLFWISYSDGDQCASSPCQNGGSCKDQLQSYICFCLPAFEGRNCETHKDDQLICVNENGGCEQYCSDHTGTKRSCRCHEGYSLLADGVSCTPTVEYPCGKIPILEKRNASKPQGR
Sequence of fVIIa (P08709 213-466 limits assumed): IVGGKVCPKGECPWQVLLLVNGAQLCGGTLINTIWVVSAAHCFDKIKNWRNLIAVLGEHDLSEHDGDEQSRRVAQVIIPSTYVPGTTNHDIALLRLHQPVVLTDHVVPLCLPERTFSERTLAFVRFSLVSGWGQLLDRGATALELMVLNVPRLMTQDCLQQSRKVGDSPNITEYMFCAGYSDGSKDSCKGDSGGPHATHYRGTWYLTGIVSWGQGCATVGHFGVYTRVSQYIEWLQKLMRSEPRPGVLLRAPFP
Sequence of fVIIa (P13726 33-295 partner): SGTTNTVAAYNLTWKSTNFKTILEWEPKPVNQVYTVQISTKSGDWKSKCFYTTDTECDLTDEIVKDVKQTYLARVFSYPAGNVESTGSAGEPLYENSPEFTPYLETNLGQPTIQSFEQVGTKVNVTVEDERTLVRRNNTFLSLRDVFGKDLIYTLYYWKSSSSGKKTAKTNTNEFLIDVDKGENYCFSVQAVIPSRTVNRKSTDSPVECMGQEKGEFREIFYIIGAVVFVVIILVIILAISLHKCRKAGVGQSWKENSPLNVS
Description: Concentrations of TF were varied (0-500 pM) and incubated with 2 nM fVIIa in HBS pH 7.4, containing 2 mM Calcium Chloride (CaCl2), for 10 minutes at room temperature. Next, 50 μM D-FPR-(n-butyl)ANSN was added. Substrate hydrolysis was then monitored continuously for five minutes in a fluorometer at an excitation wavelength of 350 nm and an emission wavelength of 470 nm. The rates of substrate hydrolysis were determined for each TF concentration tested. The rate of hydrolysis by 2 nM fVIIa alone was measured and subtracted from the rates observed in the presence of TF. FIG. 2 is a graph of a calibration line based on these rates of hydrolysis at various TF concentrations.
In this example the preparation for TF employed in Example 3 was relipidated into phospholipid (PCPS) vesicles, composed of 75% phosphatidylcholine (PC) and 25% phosphatidylserine (PS). Relipidated TF, 250 pM TF to 500 nM PCPS, was incubated with 2 nM fVIIa in HBS, 2 mM CaCl2 pH 7.4 for ten minutes at room temperature. Next, 50 μM D-FPR-(n-butyl)ANSN was added. Rates of hydrolysis were determined and the rate of hydrolysis by 2 nM fVIIa alone was measured and subtracted from the rates observed in the presence of TF. The net rate of hydrolysis was then compared to the FIG. 2 calibration curve.

[2] = target: factor VIIa (Homo sapiens, UniProt P08709); experiment: Fluorogenic TF cofactor activity assay with excess factor VIIa and D-FPR-(n-butyl)ANSN, read against the units/ml standard curve (FIG. 3); format: biochemical
Sequence of factor VIIa (P08709 61-212 limits assumed): as the sequence (P08709 61-212 limits assumed) above
Sequence of factor VIIa (P08709 213-466 limits assumed): as the sequence (P08709 213-466 limits assumed) above
Sequence of factor VIIa (P13726 33-295 partner): as the sequence (P13726 33-295 partner) above
Description: A standardized preparation of recombinant human TF with a cofactor activity of 241 units/ml (specific activity of 3906 units/milligram) was serially diluted to create stock assay standards in the range of 8 to 0.25 units/ml. One hundred microliters of each stock standard was combined with 50 microliters of 120 nM factor VIIa. Subsequently 50 microliters of 150 uM D-FPR-(n-butyl)ANSN was added and the rate of substrate hydrolysis was measured in a fluorometer at an excitation wavelength of 350 nm and an emission wavelength of 470 nm. A standard curve was generated in FIG. 3 by plotting the change in fluorescent intensity over time versus the concentration of TF (in units/ml). In a similar manner, a sample of TF (0.8 mg/ml) with an unknown amount of cofactor activity was assayed for comparison to the standard. After correcting for assay dilution, the unknown sample returned an assay value of 2803 units per milliliter, and thus a specific activity of 3504 units per milligram. Consequently, this allows for comparison of different preparations of TF using their specific activity, which is a direct indication of quality and functionality.

[3] = standardized preparation used as assay standard

- TF added to the relipidation mixture expressed as functional TF [1]: 35-40%
Substance: Relipidated TF: TF preparation of Example 3 relipidated into PCPS vesicles (75% phosphatidylcholine, 25% phosphatidylserine)

- cofactor activity [2, 3]: 241 units/ml
Substance: recombinant human TF: standardized preparation of recombinant human tissue factor used as assay standard
- specific activity [2, 3]: 3906 units/milligram

- cofactor activity, assay value after correcting for assay dilution ([2]; TF sample 0.8 mg/ml, 120 nM factor VIIa stock, 150 uM D-FPR-(n-butyl)ANSN stock): 2803 units per milliliter
Substance: sample of TF: sample of tissue factor (0.8 mg/ml) with an unknown amount of cofactor activity
- specific activity ([2]; TF sample 0.8 mg/ml): 3504 units per milligram
